Measured values reported in patent US20220249369.

Biological target: T1, OmpTs, DABCYL-RRSRRV-K(5-FAM)
T1 chain: RRSRRVK

B1: Outer Membrane Protease T (protein)
chain: STETLSFTPDNINADISLGTLSGKTKERVYLAEEGGRKVSQLDWKFNNAAIIKGAINWDLMPQISIGAAGWTTLGSRGGNMVDQDWMDSSNPGTWTDESRHPDTQLNYANEFDLNIKGWLLNEPNYRLGLMAGYQESRYSFTARGGSYIYSSEEGFRDDIGSFPNGERAIGYKQRFKMPYIGLTGSYRYEDFELGGTFKYSGWVESSDNDEHYDPGKRITYRSKVKDQNYYSVAVNAGYYVTPNAKVYVEGAWNRVTNKKGNTSLYDHNNNTSDYSKNGAGIENYNFITTAGLKYTF
cleavage of quenched fluorescent substrate: a substrate (RRSRRVK (SEQ ID NO:9)) specific for the E. coli surface protease OmpT
